From FireProtDB (doi:10.1021/bi00185a025) come the findings set out here.

For the data set the following is noted: Escherichia coli (strain K12); pH 7; 25 °C; Urea; CD; Sodium phosphate 5 mM; reversible: yes; whole UniProt chain shown.

B1: Chemotaxis protein CheY wild type, P0AE67 (protein)
chain: MADKELKFLVVDDFSTMRRIVRNLLKELGFNNVEEAEDGVDALNKLQAGGYGFVISDWNMPNMDGLELLKTIRADGAMSALPVLMVTAEAKKENIIAAAQAGASGYVVKPFTAATLEEKLNKIFEKLGM
Consider B1, for which the denaturant m value was determined as 1.6 kcal/mol/M, the “denaturant midpoint (higher = more stable)” value turned out to be 3.25 M and the unfolding free energy was 5.2 kcal/mol.
